The text below walks through data of patent publication US8846003 (PURDUE RESEARCH FOUNDATION, dated 2014).

*: point of attachment. Dansyl = CN(C)c1cccc2c(S(=O)(=O)*)cccc12

For test [1], the target named is T1, collagen.
T1 construct: also called collagen surface; collagen-treated well
Nature of the test: fluorescence plate binding assay; collagen coated on 96-well high-binding plate, Z-SILY 100 µM to 10 nM, ex/em 335/490 nm; from equilibrium binding. Here is the method:
(§1) Binding assays were done in a 96-well high-binding plate, black with a clear bottom (Costar). Collagen was compared to untreated wells and BSA coated wells. Collagen and BSA were immobilized at 37° C. for 1 hr by incubating 90 µL/well at concentrations of 2 mg/mL in 10 mM HCl and 1×PBS, respectively. Each well was washed 3× with 1×PBS after incubating. Z-SILY was dissolved in 1×PBS at concentrations from 100 µM to 10 nM in 10-fold dilutions. Wells were incubated for 30 min at 37° C. and rinsed 3× with PBS and then filled with 90 µL of 1×PBS. Fluorescence readings were taken on an M5 Spectramax Spectrophotometer (Molecular Devices) at excitation/emission wavelengths of 335 nm/490 nm respectively.

Test [2] deals with T1, collagen. Nature of the test: microplate fluorescence binding assay on collagen-coated wells, binding curve fitted to the data of FIGURE 4.
Text: Figure 4: FIG. 4. Binding of dansyl-modified peptide SILY to collagen measured in 96-well high-binding plate (black with a clear bottom (Costar)). PBS, buffer only; BSA, BSA-treated well; Collagen, collagen-treated well. Fluorescence readings were taken on an M5 Spectramax Spectrophotometer (Molecular Devices) at excitation/emission wavelengths of 335 nm/490 nm, respectively. Figure 5: FIG. 5. Collagen-dansyl-modified peptide SILY binding curve derived from fluorescence data described in FIG. 4. Figure 6: FIG. 6. A schematic description of the reagent, 3-(2-pyridyldithio)propionyl hydrazide (PDPH), and the chemistry of the two-step conjugation of a cysteine-containing peptide with an oxidized glycosylaminoglycoside showing the release of 2-pyridylthiol in the final step.
as §1, with “Wells were incubated for 30 min at 37° C. and rinsed 3× with PBS and then filled with 90 µL of 1×PBS.” left out

What is called Kd is the concentration at which binding is half-saturated. Higher therefore signals a looser complex. As a reminder, the EC50 (read off the curve) is the concentration giving half of the maximal effect. Low readings indicate an effect from little substance, high ones a need for much substance.

B1: Dansyl-GRRANAALKAGELYKSILYGC (peptide)
peptide: Dansyl-GRRANAALKAGELYKSILYGC-NH2
notes: Fluorescently labelled version of SILY; also called Z-SILY; ZSILY
Consider B1, for which the Kd with collagen [1] amounted to 860 nM. For the same molecule, in the test with collagen [2], the “EC50 (read off the curve)” value was ~0.9 µM.
